Data from paper doi:10.1101/2021.11.24.469940 (bioRxiv, 2021).

Molecular target: the molecule itself
Assay: cryo-EM structure

B1: mature wild-type S. cerevisiae PIM1 lacking the mitochondrial targeting sequence (Met182 – Asp1133) (enzyme, UniProt P36775 182-1133, looked up)
chain: MLALPIARRPLFPGFYKAVVISDERVMKAIKEMLDRQQPYIGAFMLKNSEEDTDVITDKNDVYDVGVLAQITSAFPSKDEKTGTETMTALLYPHRRIKIDELFPPNEEKEKSKEQAKDTDTETTVVEDANNPEDQESTSPATPKLEDIVVERIPDSELQHHKRVEATEEESEELDDIQEGEDINPTEFLKNYNVSLVNVLNLEDEPFDRKSPVINALTSEILKVFKEISQLNTMFREQIATFSASIQSATTNIFEEPARLADFAAAVSAGEEDELQDILSSLNIEHRLEKSLLVLKKELMNAELQNKISKDVETKIQKRQREYYLMEQLKGIKRELGIDDGRDKLIDTYKERIKSLKLPDSVQKIFDDEITKLSTLETSMSEFGVIRNYLDWLTSIPWGKHSKEQYSIPRAKKILDEDHYGMVDVKDRILEFIAVGKLLGKVDGKIICFVGPPGVGKTSIGKSIARALNRKFFRFSVGGMTDVAEIKGHRRTYIGALPGRVVQALKKCQTQNPLILIDEIDKIGHGGIHGDPSAALLEVLDPEQNNSFLDNYLDIPIDLSKVLFVCTANSLETIPRPLLDRMEVIELTGYVAEDKVKIAEQYLVPSAKKSAGLENSHVDMTEDAITALMKYYCRESGVRNLKKHIEKIYRKAALQVVKKLSIEDSPTSSADSKPKESVSSEEKAENNAKSSSEKTKDNNSEKTSDDIEALKTSEKINVSISQKNLKDYVGPPVYTTDRLYETTPPGVVMGLAWTNMGGCSLYVESVLEQPLHNCKHPTFERTGQLGDVMKESSRLAYSFAKMYLAQKFPENRFFEKASIHLHCPEGATPKDGPSAGVTMATSFLSLALNKSIDPTVAMTGELTLTGKVLRIGGLREKAVAAKRSGAKTIIFPKDNLNDWEELPDNVKEGLEPLAADWYNDIFQKLFKDVNTKEGNSVWKAEFEILDAKKEKD
  stoichiometry N: 6
